We go through 32 molecules from patent US20240116985A1, “STAPLED PEPTIDES AND METHODS THEREOF” (priority 2020, published 2024).

The term IC50 denotes the concentration at which inhibition is half-maximal. High values mean a need for much substance, low ones inhibition by little substance. In general, EC50 refers to the concentration at which the effect is half-maximal.

Assay [1] addresses full-length beta-Catenin (Uniprot ID P35222) (Homo sapiens (Human)) (UniProt P35222). Kind of assay: fluorescence polarization competition; full-length beta-catenin, 5FAM-TCF4(10-53) probe as competitor. Background: In fluorescence polarisation assays a small probe gives low polarisation when free and higher when bound to something large.
Target sequence in this assay (P35222 2-781 limits assumed): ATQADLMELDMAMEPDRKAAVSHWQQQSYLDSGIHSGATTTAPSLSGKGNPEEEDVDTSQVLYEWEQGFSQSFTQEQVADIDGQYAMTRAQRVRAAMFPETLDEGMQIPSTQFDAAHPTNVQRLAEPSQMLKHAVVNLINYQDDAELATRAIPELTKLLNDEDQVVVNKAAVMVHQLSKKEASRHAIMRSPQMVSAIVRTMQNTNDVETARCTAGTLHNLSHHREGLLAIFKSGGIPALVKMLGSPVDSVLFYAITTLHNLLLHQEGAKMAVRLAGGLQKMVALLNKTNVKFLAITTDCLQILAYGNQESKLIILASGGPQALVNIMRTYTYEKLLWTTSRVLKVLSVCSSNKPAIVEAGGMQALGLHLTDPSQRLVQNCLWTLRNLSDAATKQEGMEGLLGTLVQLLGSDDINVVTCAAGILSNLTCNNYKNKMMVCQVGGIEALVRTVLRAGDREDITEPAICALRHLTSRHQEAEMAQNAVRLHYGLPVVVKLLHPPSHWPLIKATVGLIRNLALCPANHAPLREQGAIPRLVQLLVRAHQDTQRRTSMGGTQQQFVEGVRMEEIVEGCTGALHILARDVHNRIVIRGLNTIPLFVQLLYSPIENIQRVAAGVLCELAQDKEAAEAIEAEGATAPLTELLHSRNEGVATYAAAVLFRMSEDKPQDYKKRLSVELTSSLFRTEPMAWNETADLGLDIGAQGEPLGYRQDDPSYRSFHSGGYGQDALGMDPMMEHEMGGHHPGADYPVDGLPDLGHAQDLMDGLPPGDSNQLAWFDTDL
The target is the same in assay [2]. Kind of assay: fluorescence polarization competition; full-length beta-catenin, competitor 5FAM-TCF4(10-53) probe.
Target sequence in this assay (P35222 whole entry): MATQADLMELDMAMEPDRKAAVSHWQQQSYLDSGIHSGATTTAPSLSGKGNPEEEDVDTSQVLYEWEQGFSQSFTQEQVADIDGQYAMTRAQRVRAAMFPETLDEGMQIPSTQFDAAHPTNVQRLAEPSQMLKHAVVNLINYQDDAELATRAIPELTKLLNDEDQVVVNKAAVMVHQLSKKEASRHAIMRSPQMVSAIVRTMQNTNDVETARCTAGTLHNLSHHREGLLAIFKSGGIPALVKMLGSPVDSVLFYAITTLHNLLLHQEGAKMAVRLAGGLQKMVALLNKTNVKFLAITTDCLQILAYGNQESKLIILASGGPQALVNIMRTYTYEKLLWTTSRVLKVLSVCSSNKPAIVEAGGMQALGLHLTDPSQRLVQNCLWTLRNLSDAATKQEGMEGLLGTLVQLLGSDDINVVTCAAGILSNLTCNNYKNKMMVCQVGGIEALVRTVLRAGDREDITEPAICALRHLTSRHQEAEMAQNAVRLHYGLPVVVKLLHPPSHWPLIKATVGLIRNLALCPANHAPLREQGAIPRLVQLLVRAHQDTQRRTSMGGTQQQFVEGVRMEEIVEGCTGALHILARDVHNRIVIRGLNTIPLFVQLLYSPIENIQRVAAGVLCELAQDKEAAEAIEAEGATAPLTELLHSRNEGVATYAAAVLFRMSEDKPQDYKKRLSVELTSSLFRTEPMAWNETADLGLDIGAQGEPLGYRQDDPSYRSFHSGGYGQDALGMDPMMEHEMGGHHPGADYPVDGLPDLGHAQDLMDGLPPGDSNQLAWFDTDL
For assay [3] the target is unchanged. Kind of assay: fluorescence polarization competition; full-length beta-catenin with 5FAM-TCF4(10-53) probe as competitor.
The target is the same in assay [4]. Kind of assay: fluorescence polarization competition; displacement of 5FAM-TCF4(10-53) from full-length beta-catenin.
Target sequence in this assay (P35222 whole entry): as above

Starred links: 1 amine or outer side, 2 acyl side, 3 side chain; linkers in the order of their positions; H or OH if unused. Positions of bridges follow the written chain, without caps; N, C: chain ends. Non-standard residues stand in square brackets, D forms with d. Primed or numbered codes have the meaning given here. No end group written: not given here. *: point of attachment. PyrS2″ = (S)-3-amino-1-((pent-4-en-1-yloxy)carbonyl)pyrrolidine-3-carboxylic acid (stapling residue), C=CCCCOC(=O)N1CC[C@@](N[*:1])(C(=O)[*:2])C1; B5(23) = 2-amino-2-(pent-4-en-1-yl)hept-6-enoic acid (2,2-bis(4-pentenyl)glycine), stitching residue, C=CCCCC(CCCC=C)(N[*:1])C(=O)[*:2]; B5(4) = 2,2-bis(4-pentenyl)glycine = 2-amino-2-(pent-4-en-1-yl)hept-6-enoic acid (stitching residue), C=CCCCC(CCCC=C)(N[*:1])C(=O)[*:2]; B5(5) = 2,2-bis(4-pentenyl)glycine, 2-amino-2-(pent-4-en-1-yl)hept-6-enoic acid (stitching residue), C=CCCCC(CCCC=C)(N[*:1])C(=O)[*:2]; TfeGA(3) = (S)-2-amino-3-((carboxymethyl)(2,2,2-trifluoroethyl)amino)prop[anoic acid], O=C([C@H](CN(CC(=O)[*:3])CC(F)(F)F)N[*:1])[*:2]; PyrS2 = (S)-3-amino-1-((pent-4-en-1-yloxy)carbonyl)pyrrolidine-3-carboxylic acid, C=CCCCOC(=O)N1CC[C@@](N[*:1])(C(=O)[*:2])C1; B5(3) = 2,2-bis(4-pentenyl)glycine (stitching residue), C=CCCCC(CCCC=C)(N[*:1])C(=O)[*:2]; ProSAm3 = (allylsulfonyl)-D-proline, C=CCS(=O)(=O)N1CCC[C@@H]1C(=O)*; Phe(3-COOH) = N[C@@H](Cc1cccc(C(=O)O)c1)C(=O)O; Phe(4-COOH) = N[C@@H](Cc1ccc(C(=O)O)cc1)C(=O)O; Phe(2-CF3) = N[C@@H](Cc1ccccc1C(F)(F)F)C(=O)O; Abu(4,4,4-F3) = N[C@@H](CC(F)(F)F)C(=O)O; Ala(2-furyl) = N[C@@H](Cc1ccco1)C(=O)O; Bta = N[C@@H](Cc1csc2ccccc12)C(=O)O; αAllylPro = C=CC[C@@]1(C(=O)O)CCCN1; tBuAla = CC(C)(C)C[C@H](N)C(=O)O; 2Thi = N[C@@H](Cc1cccs1)C(=O)O; 3Thi = N[C@@H](Cc1ccsc1)C(=O)O; S8 = C=CCCCCCC[C@](C)(N)C(=O)O; R5 = C=CCCC[C@@](C)(N)C(=O)O; Dab = NCC[C@H](N)C(=O)O; Abu = CC[C@H](N)C(=O)O; Dap = NC[C@H](N)C(=O)O; Acryloyl = C=CC(=O)*

Turning to Ac-[αAllylPro]D[tBuAla][B5(23)]NNAAFL[PyrS2][3Thi][Bta]Q-NH2 (staple 1-4, 4-11) [I-1557], the IC50 in assay [1] came out at 342 nM.

In turn, Ac-[αAllylPro]DI[B5(5)]D[Phe(4-COOH)]AAFQ[S8]F[Bta]Q-NH2 (staple 1-4, 4-11; also: staple isomer, earlier eluting HPLC peak) [I-606] showed an EC50 in assay [2] of 289 nM. This molecule displayed an IC50 in assay [3] of 289 nM.

In the case of Ac-[αAllylPro]DI[B5(4)]DDAAFQ[S8][Dap](Acryloyl)[Bta]Q-NH2 (staple 1-4, 4-11; also: earlier eluting HPLC peak (staple isomer)) [I-483], in assay [4], the EC50 was found to be 5000 nM. The molecule also registered an IC50 in assay [3] of 5000 nM.

As for Ac-[αAllylPro]D[tBuAla][B5(4)]SNAAFN[PyrS2][3Thi][Bta]Q-NH2 (staple 1-4, 4-11) [I-1561], in assay [1], the IC50 is 2600 nM.

Consider Ac-[αAllylPro]D[tBuAla][B5(4)]QNAAFN[PyrS2][3Thi][Bta]Q-NH2 (staple 1-4, 4-11) [I-1560], for which the IC50 in assay [1] came to 368 nM. This IC50 is about 7.1-fold lower than that of the molecule before.

Ac-[αAllylPro]DI[B5(4)]DEAA[2Thi]Q[S8]F[Bta]H-NH2 (staple 1-4, 4-11) [I-488]: the EC50 in assay [4] was determined as 43 nM. This molecule also displayed an IC50 in assay [3] of 43 nM.

As to Ac-[αAllylPro]D[tBuAla][B5(3)]D[Phe(3-COOH)]QAFL[PyrS2″][Phe(2-CF3)][RbMe2NapA]A-NH2 (staple 1-4, 4-11) [Ac-PL3-Asp-Npg-B5-Asp-3COOHF-Gln-Ala-Phe-Leu-PyrS2-2F3MeF-RbMe2NapA-Ala-NH2], the IC50 in assay [1] was found to be 47 nM. This counts as double-digit nanomolar.

In turn, Ac-[αAllylPro]D[tBuAla][B5(23)]NQAAFN[PyrS2][3Thi][Bta]Q-NH2 (staple 1-4, 4-11; also: earlier-eluting HPLC staple isomer) [I-1566] registered an IC50 in assay [1] of 231 nM.

In assay [1], Ac-[αAllylPro]D[tBuAla][B5(4)]LNAAFN[PyrS2][3Thi][Bta]Q-NH2 (staple 1-4, 4-11; also: staple isomer of later-eluting HPLC peak) [I-1563] came in with an IC50 of 2850 nM.

The molecule Ac-[αAllylPro]D[tBuAla][B5(4)]NYAAFN[PyrS2][3Thi][Bta]Q-NH2 (staple 1-4, 4-11; also: staple isomer of later-eluting HPLC peak) [I-1569] registered an IC50 in assay [1] of 2660 nM.

B1: I-1577 (peptide)
peptide: [ProSAm3]D[tBuAla][B5(4)]DDAAFN[PyrS2″][3Thi][Bta]Q-NH2
modifications: staple (positions not given here); staple 4-11; not fully specified (bridges); printed as ProSAm3-Asp-Npg-B5-Asp-Asp-Ala-Ala-Phe-Asn-PyrS2-3Thi-BztA-Gln-NH2; also: staple isomer of later-eluting HPLC peak
Molecule B1 gave an IC50 in assay [1] of 45 nM.

In turn, Ac-[αAllylPro]DA[B5(4)]D[TfeGA(3)]AAFQ[S8]F[Bta]H-NH2 (staple 1-4, 4-11) [I-499] came in with an EC50 in assay [4] of 123 nM. Besides, the IC50 in assay [3] came to 123 nM.

With Ac-[αAllylPro]D[Abu][B5(4)]DEAAFN[S8]F[Bta]Q-NH2 (staple 1-4, 4-11) [I-473], the EC50 in assay [4] came to 121 nM. Also, the IC50 in assay [3] came out at 121 nM.

Molecule Ac-[αAllylPro]DI[B5(5)]D[Phe(4-COOH)]AAFQ[S8]F[Bta]Q-NH2 (staple 1-4, 4-11) [I-607] yielded an EC50 in assay [2] of 253 nM. The 50% inhibitory concentration (IC50) in assay [3] was 253 nM.

Molecule Ac-[αAllylPro]D[tBuAla][B5(4)]TNAAFN[PyrS2][3Thi][Bta]Q-NH2 (staple 1-4, 4-11) [I-1559] returned an IC50 in assay [1] of 9680 nM.

Ac-[αAllylPro]D[tBuAla][B5(4)]NLAAFN[PyrS2][3Thi][Bta]Q-NH2 (staple 1-4, 4-11) [I-1570] gave an IC50 in assay [1] of 1340 nM.

In the case of Ac-[αAllylPro]D[tBuAla][B5(4)]NYAAFN[PyrS2][3Thi][Bta]Q-NH2 (staple 1-4, 4-11; also: staple isomer of earlier-eluting HPLC peak) [I-1568], the IC50 in assay [1] was 7180 nM. This IC50 lies about 5.4-fold higher than the previous one.

With Ac-[αAllylPro]D[tBuAla][B5(4)]QQAAFN[PyrS2][3Thi][Bta]Q-NH2 (staple 1-4, 4-11) [I-1558], the IC50 in assay [1] turned out to be 678 nM. Against the preceding molecule, the IC50 is about 11-fold lower.

With Ac-[αAllylPro]D[Abu(4,4,4-F3)][B5(4)]DEAAFQ[S8]F[Bta]Q-NH2 (staple 1-4, 4-11; also: earlier eluting HPLC peak (staple isomer)) [I-501], the EC50 in assay [4] was 94 nM. Moreover, the IC50 in assay [3] came to 94 nM.

For Ac-[αAllylPro]DA[B5(4)]DEAA[2Thi]Q[S8]F[Bta]Q-NH2 (staple 1-4, 4-11; also: earlier eluting HPLC peak (staple isomer)) [I-486], in assay [4], the EC50 amounted to 147 nM. Besides, in assay [3], the IC50 is 147 nM.

In the case of Ac-[αAllylPro]DA[B5(23)]NNAAFN[PyrS2][3Thi][Bta]Q-NH2 (staple 1-4, 4-11) [I-1556], in assay [1], the IC50 was found to be 385 nM.

Ac-[αAllylPro]DI[B5(4)]DDAAFQ[S8][Dap](Acryloyl)[Bta]Q-NH2 (staple 1-4, 4-11; also: later eluting HPLC peak (staple isomer)) [I-484] showed an EC50 in assay [4] of 5000 nM. Moreover, in assay [3], the IC50 was 5000 nM.

B2: I-1567 (peptide)
peptide: Ac-[αAllylPro]D[tBuAla][B5(23)]NQAAFN[PyrS2][3Thi][Bta]Q-NH2
modifications: staple 1-4, 4-11; not fully specified; printed as Ac-PL3-Asp-Npg-B5-Asn-Gln-Ala-Ala-Phe-Asn-PyrS2-3Thi-BztA-Gln-NH2
Consider B2, for which the IC50 in assay [1] came to 182 nM.

Turning to Ac-PD[tBuAla][R5]DDAAFL[PyrS2][3Thi][Bta]Q-NH2 (staple 4-11; also: staple -CH=CH- reduced to -CH2-CH2-) [I-1810], in assay [1], the IC50 was 416 nM.

In assay [4], Ac-[αAllylPro]DI[B5(4)]DDAAFQ[S8]F[Bta][Dab]-NH2 (staple 1-4, 4-11) [I-482] returned an EC50 of 118 nM. The molecule also registered an IC50 in assay [3] of 118 nM.

For Ac-[αAllylPro]DA[B5(4)]DEAA[2Thi]Q[S8]F[Bta]Q-NH2 (staple 1-4, 4-11; also: later eluting HPLC peak (staple isomer)) [I-487], the EC50 in assay [4] stood at 45 nM. This molecule also returned an IC50 in assay [3] of 45 nM.

Ac-[αAllylPro]D[tBuAla][B5(4)]LNAAFN[PyrS2][3Thi][Bta]Q-NH2 (staple 1-4, 4-11; also: staple isomer of earlier-eluting HPLC peak) [I-1562] came in with an IC50 in assay [1] of 5020 nM. That is a single-digit micromolar value.

As for Ac-[αAllylPro]D[Abu][B5(4)]DEAAFN[S8]F[Bta]Q-NH2 (staple 1-4, 4-11) [I-474], in assay [4], the EC50 amounted to 43 nM. In assay [3], this molecule showed an IC50 of 43 nM.

B3: I-1576 (peptide)
peptide: [ProSAm3]D[tBuAla][B5(4)]DDAAFN[PyrS2″][3Thi][Bta]Q-NH2
modifications: staple (positions not given here); staple 4-11; not fully specified (bridges); printed as ProSAm3-Asp-Npg-B5-Asp-Asp-Ala-Ala-Phe-Asn-PyrS2-3Thi-BztA-Gln-NH2; also: staple isomer of earlier-eluting HPLC peak
In the case of B3, the IC50 in assay [1] was 224 nM.

For Ac-[αAllylPro]DI[B5(4)]DDAA[2Thi]Q[S8]F[Bta]H-NH2 (staple 1-4, 4-11) [I-489], the EC50 in assay [4] amounted to 57 nM. The same molecule displayed an IC50 in assay [3] of 57 nM.

In turn, Ac-[αAllylPro]DI[B5(4)]D[TfeGA(3)]AAFQ[S8]F[Bta]H-NH2 (staple 1-4, 4-11) [I-500] returned an EC50 in assay [4] of 176 nM. The same molecule registered an IC50 in assay [3] of 176 nM.

Molecule Ac-[αAllylPro]DA[B5(4)]DEAAFQ[S8]F[Bta][Ala(2-furyl)]-NH2 (staple 1-4, 4-11) [I-490] gave an EC50 in assay [4] of 88 nM. Also, the IC50 in assay [3] came out at 88 nM.
